These are literature values, as cited in US11033499B2, “Tablet formulation comprising a GLP-1 peptide and a delivery agent” (priority 2012, dated 2021).

For orientation: Tmax means the time from dosing to the highest level.

For the data set the following is noted: published studies with SNAC and human GLP-1.

Regarding “human GLP-1: human GLP-1 given with SNAC in published studies”, the Tmax is 20 to 30 min.
